B1: BD-515 Fab (Fab, V domains shown)
VH: EVQLVESGGGLVQPGGSLRLSCAASEFIVSRNYMSWVRQAPGKGLEWVSVIYSGGSTFYADSVKGRFTISRDNSKNTLYLQMNSLRAEDTGVYYCARDRGLVSDYWGQGTLVTVSS
VL: DIQMTQSPSSLSASVGDRVTITCQASQDINKYLNWYQQKPGKAPKLLIFDASHLETGVPSRFSASGSGTDFTFTISSLQPEDIATYYCHQYDNLPRTFGQGTRLEIK
B2: BD-508 Fab (Fab, V domains shown)
VH: EVQLVESGGGLVQPGGSLRLSCAASGFIVSSNYMTWVRQAPGKGLEWVSVIYSGGSTFYADSVKGRFTISRHNSKNTLFLQMNSLRAEDTAVYYCARDAQNYGMDVWGQGTTVTVSS
VL: DIQMTQSPSSLSASVGDRVTITCRASQSISSYLNWYQQKPGKAPKLLIFAASSLQTGAPSRFSGSGSGTDFTLTISSLQPEDFATYYCQQSYSTPPYTFGQGTKLEIK
B3: BD-623 Fab (Fab, V domains shown)
VH: EVQLVESGGGLVQPGGSLRLSCAASGVTVSSNYMSWVRQAPGKGLEWVSAVYSGGSTYYADSVKGRFTISRHNSKNTLYLQMKSLRPEDTAIYYCARLINHYYDSSGDGGAFDIWGQGTMVTVSS
VL: LTQPASVSGSPGQSITISCTGTSSDVGSYNLVSWYQQRPGKAPKLILYEVTKRPSGVSNRFSGSKSGNTASLAISGLQAEDEADYYCCSYAGSSTWVFGGGTKLTVL

target: SARS-CoV-2 S protein receptor-binding domain (RBD), residues 319–541 (SARS-CoV-2, UniProt P0DTC2); test: crystal structure; settings: both partners purified

Row | Binder | binding result
1 | B1 | binds
2 | B2 | binds
3 | B3 | binds

Reference: article PMC8138844 (Cell Research, 2021)
